Measurements taken from patent US20210393523A1, “AROMATIC RING SUBSTITUTED AMPHIPHILIC POLYMERS AS DRUG DELIVERY SYSTEMS” (Avldea Technologies, Inc., priority 2018, published 2021).
Square brackets hold non-standard residues; d marks the D form. Ends that are not written are not given here. N3‑DBCO = triazole linker from reaction of an azide with DBCO; Lys(N3) = [N-]=[N+]=NCCCC[C@H](N)C(=O)O; Phe(4-NH2) = Nc1ccc(C[C@H](N)C(=O)O)cc1

How the values were obtained:
[1] = Particle size and stability by dynamic light scattering; type: physicochemical; conditions: Table 3; peptide-based linear C-B-H; PBS pH 7.4, 0.5 mg/mL
Experimental: To evaluate particle size and stability, 10 μL of the resulting mixture was diluted with 190 μL PBS, pH 7.4 and the resulting solution was evaluated for turbidity and by dynamic light scattering (DLS).
This reaction scheme was used to prepare different compositions of amphiphilic block copolymers that were characterized for the capacity to form stable nanoparticle micelles in aqueous buffer, PBS pH 7.4, at a concentration of 0.5 mg/mL of amphiphilic block copolymer.
A series of linear amphiphilic block copolymers of formula C-B-H, wherein the charged molecule (C) and spacer (B) comprises peptides, i.e., poly(lysine) and poly(serine-co-glycine), respectively, with varying hydrophobic polymer composition were evaluated for particle size and stability by dynamic light scattering.

[2] = system: MC38 tumor cells; test: Regression of established MC38 tumors after intratumoral treatment; type: in vivo, C57BL/6 mice; conditions: intratumoral days 11 and 17, 10 and 50 nmol
Experimental: Tumors were measured by digital callipers for the longest dimension (‘length’) and the distance perpendicular to the length (‘width’), and volume estimated by the formula: <volume=width×width×length/2>. Data are reported as mean±s.e.m in FIGS. 3-5. Tumor regression is noted as soon as 1 day following 50 nmol dose of each S-B-H carrier of TLR-7/8a.

[3] = Particle size and stability by dynamic light scattering; type: physicochemical; conditions: Table 2; S-[B]-H particles

| Substance | Size (diameter, nm) [1] [nm] | other results |
| --- | --- | --- |
| KKKKKKK-SGSGSGSGSGSGSGSGSGSGSGSG-(Lys(N3-DBCO))-Ahx-(F′)20: peptide-based linear amphiphilic block copolymer (KKKKKKKSGSGSGSGSGSGSGSGSGSGSGSGK[Phe(4-NH2)][Phe(4-NH2)][Phe(4-NH2)][Phe(4-NH2)][Phe(4-NH2)][Phe(4-NH2)][Phe(4-NH2)][Phe(4-NH2)][Phe(4-NH2)][Phe(4-NH2)][Phe(4-NH2)][Phe(4-NH2)][Phe(4-NH2)][Phe(4-NH2)][Phe(4-NH2)][Phe(4-NH2)][Phe(4-NH2)][Phe(4-NH2)][Phe(4-NH2)][Phe(4-NH2)]; not fully specified (residue 32); also: Lys joined to F′ block via N3-DBCO-Ahx linkage) | 32 |  |
| K7(SG)12×—(N3-DBCO)-Ahx-(F′)20 [Compound 84] |  | Regression of established tumors ([2]; FIG. 4, nanoparticles associated with 2BXy (1 to 4 molar ratio) or covalently linked to 2BXy): promote regression of established tumors |
| EEEEE-(N3-DBCO)-WWWWW (EEEEE[N3‑DBCO]WWWWW) [Compound 23] |  | Particle size (Diameter, nm) [3]: 54.09 nm |
| {OH-PEG24}4-{propargyl}4K2K{Lys(N3)}-DBCO-Ahx-(F′)10 [Compound 80] |  | Regression of established tumors ([2]; FIG. 5, nanoparticles admixed with 2BXy and Doxorubicin at 1 to 4 to 4 molar ratio): promote regression of established tumors |
| KKKKKKK-SGSGSGSGSGSGSGSGSGSGSGSG-(Lys(N3-DBCO))-Ahx-(F′)5: peptide-based linear amphiphilic block copolymer (KKKKKKKSGSGSGSGSGSGSGSGSGSGSGSGK[Phe(4-NH2)][Phe(4-NH2)][Phe(4-NH2)][Phe(4-NH2)][Phe(4-NH2)]; not fully specified (residue 32); printed as KKKKKKK-SGSGSGSGSGSGSGSGSGSGSGSG-(Lys(N3-DBCO))-Ahx-(F′)5; also: Lys joined to F′ block via N3-DBCO-Ahx linkage) | 477 |  |
| KKK-SGSGSGSGSGSGSGSGSGSGSGSG-(Lys(N3-DBCO))-Ahx-(F′)10: peptide-based linear amphiphilic block copolymer (KKKSGSGSGSGSGSGSGSGSGSGSGSGK[Phe(4-NH2)][Phe(4-NH2)][Phe(4-NH2)][Phe(4-NH2)][Phe(4-NH2)][Phe(4-NH2)][Phe(4-NH2)][Phe(4-NH2)][Phe(4-NH2)][Phe(4-NH2)]; not fully specified (residue 28); printed as KKK-SGSGSGSGSGSGSGSGSGSGSGSG-(Lys(N3-DBCO))-Ahx-(F′)10; also: Lys joined to F′ block via N3-DBCO-Ahx linkage) | 3839 |  |
| KKK-SLVRX-(N3-DBCO)-WWWWW (KKKSLVR[Lys(N3)]WWWWW; not fully specified (residue 8); printed as KKK-SLVRX-(N3-DBCO)-WWWWW; also: azidolysine joined to Trp block via N3-DBCO linkage) [Compound 22] |  | Particle size (Diameter, nm) [3]: 64.73 nm |
| KKK-SGSGSGSGSGSGSGSGSGSGSGSG-(Lys(N3-DBCO))-Ahx-(F′)5: peptide-based linear amphiphilic block copolymer (KKKSGSGSGSGSGSGSGSGSGSGSGSGK[Phe(4-NH2)][Phe(4-NH2)][Phe(4-NH2)][Phe(4-NH2)][Phe(4-NH2)]; not fully specified (residue 28); printed as KKK-SGSGSGSGSGSGSGSGSGSGSGSG-(Lys(N3-DBCO))-Ahx-(F′)5; also: Lys joined to F′ block via N3-DBCO-Ahx linkage) | 1013 |  |
